Biological target: Angiotensin-converting enzyme 2 (recombinant human ACE2 protein-mFc Tag) (human) (UniProt Q9BYF1)
Assay: BLI

Sequence of UniProt Q9BYF1 (Q9BYF1 18-740): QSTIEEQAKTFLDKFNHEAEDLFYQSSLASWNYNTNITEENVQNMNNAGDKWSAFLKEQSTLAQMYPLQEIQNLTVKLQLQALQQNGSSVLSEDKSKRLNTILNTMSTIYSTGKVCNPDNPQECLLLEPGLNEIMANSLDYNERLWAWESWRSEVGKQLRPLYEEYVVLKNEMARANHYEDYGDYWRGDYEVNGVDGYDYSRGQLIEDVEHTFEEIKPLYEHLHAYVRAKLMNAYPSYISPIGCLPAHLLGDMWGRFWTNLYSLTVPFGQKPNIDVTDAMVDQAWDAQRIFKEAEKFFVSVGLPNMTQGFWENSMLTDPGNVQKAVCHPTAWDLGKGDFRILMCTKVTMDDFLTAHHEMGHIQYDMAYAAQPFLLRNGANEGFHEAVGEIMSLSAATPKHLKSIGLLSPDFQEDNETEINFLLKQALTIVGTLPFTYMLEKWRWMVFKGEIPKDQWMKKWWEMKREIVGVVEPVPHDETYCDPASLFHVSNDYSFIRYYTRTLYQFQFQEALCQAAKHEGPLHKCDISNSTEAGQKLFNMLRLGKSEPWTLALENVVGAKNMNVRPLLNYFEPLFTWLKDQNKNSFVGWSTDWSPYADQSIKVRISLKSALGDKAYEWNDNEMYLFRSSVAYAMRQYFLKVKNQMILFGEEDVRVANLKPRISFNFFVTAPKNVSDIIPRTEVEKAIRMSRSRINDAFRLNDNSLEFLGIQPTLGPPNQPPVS

With Beta S1 protein (domain or fragment) the Kd was 0.472 nM.

— article PMC12314560
